Data taken from PMC7615680, “In vitro construction of the COQ metabolon unveils the molecular determinants of coenzyme Q biosynthesis” (Nature catalysis, 2024).

What was measured:
[1] = target: T1, COQ3 (tetrapod ancestral) (Tetrapoda, UniProt Z9LPW8APZ1); assay: microscale thermophoresis; format: binding
T1 construct: expressed in E. coli
T1 sequence (Z9LPW8APZ1 39-362): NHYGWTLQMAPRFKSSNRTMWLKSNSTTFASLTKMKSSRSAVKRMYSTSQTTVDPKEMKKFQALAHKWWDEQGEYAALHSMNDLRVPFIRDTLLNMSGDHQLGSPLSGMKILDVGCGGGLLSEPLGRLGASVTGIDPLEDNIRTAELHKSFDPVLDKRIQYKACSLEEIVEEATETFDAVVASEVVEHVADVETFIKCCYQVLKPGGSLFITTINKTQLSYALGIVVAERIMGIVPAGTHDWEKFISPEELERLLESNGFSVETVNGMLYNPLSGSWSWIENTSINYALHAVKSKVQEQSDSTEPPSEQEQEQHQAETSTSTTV

[2] = test system: CC(C)=CCc1cc(C(=O)O)cc(O)c1O; assay: purified protein; conditions: 2 mM SAM, no added Mg2+, pH 7.2, 25 °C
COc1cc(O)cc(CC=C(C)C)c1O = assay: purified protein; conditions: 1 mM SAM, 150 uM NADH, 25 °C
[3] = test system: NC(=O)C1=CN([C@@H]2O[C@H](COP(=O)(O)OP(=O)(O)OC[C@H]3O[C@@H](n4cnc5c(N)ncnc54)[C@H](O)[C@@H]3O)[C@@H](O)[C@H]2O)C=CC1; assay: purified protein; conditions: 700 uM non-prenylated 5ox, without COQ9, 0.05% DDM, pH 7.2, 25 °C
[4] = test system: Nc1ncnc2c1ncn2[C@@H]1O[C@H](COP(=O)(O)OP(=O)(O)OP(=O)(O)O)[C@@H](O)[C@H]1O; assay: ATPase activity (Malachite green phosphate); format: biochemical, Tetrapoda; conditions: basal ATPase; no COQ partner or intermediate

CC(C)=CCc1cc(C(=O)O)cc(O)c1O [compound 2, 3,4-dihydroxy-5-(3-methylbut-2-en-1-yl)benzoic acid]
Kd [1]: 6.5 µM

COQ3 (tetrapod ancestral) (Tetrapoda)
Km [2]: 887.9 µM
kcat [2]: 0.0467 s⁻¹

COQ5 (tetrapod ancestral) (Tetrapoda)
Km (COc1cc(O)cc(CC=C(C)C)c1O): 444 µM
kcat (COc1cc(O)cc(CC=C(C)C)c1O): 0.04 s⁻¹

COQ7 (tetrapod ancestral) (Tetrapoda)
Km [3]: 141.7 µM
kcat [3]: 0.02 s⁻¹

COQ8B (tetrapod ancestral) (Tetrapoda)
Km [4]: 26.6 µM
kcat [4]: 0.0067 s⁻¹
